Assay results reported in patent CN113173995A (SHANGHAI PUBLIC HEALTH CLINICAL CT, dated 2021).

Key:
Assay in all cases: cell-based or functional assay
SARS-CoV-2 S蛋白突变株E309D = SARS-CoV-2 S蛋白突变株E309D (SARS-CoV-2, UniProt P0DTC2 14-1273)
SARS-CoV-2 S蛋白突变株T376A = SARS-CoV-2 S蛋白突变株T376A (SARS-CoV-2, UniProt P0DTC2 14-1273)
SARS-CoV-2 S蛋白突变株F342L = SARS-CoV-2 S蛋白突变株F342L (SARS-CoV-2, UniProt P0DTC2 14-1273)
SARS-CoV-2 S蛋白突变株A372T = SARS-CoV-2 S蛋白突变株A372T (SARS-CoV-2, UniProt P0DTC2 14-1273)
SARS-CoV-2 S蛋白突变株P491A = SARS-CoV-2 S蛋白突变株P491A (SARS-CoV-2, UniProt P0DTC2 14-1273)

Measured: 假病毒中和 IC50 (Huh-7细胞, 荧光素酶)

B1: 全人源新型冠状病毒单抗REGN10989 (antibody, V domains shown)
VH: QVQLVQSGAEVKKPGASVKVSCKASGYIFTGYYMHWVRQAPGQGLEWMGWINPNSGGANYAQKFQGRVTLTRDTSITTVYMELSRLRFDDTAVYYCARGSRYDWNQNNWFDPWGQGTLVTVSS
VL: QSALTQPASVSGSPGQSITISCTGTSSDVGTYNYVSWYQQHPGKAPKLMIFDVSNRPSGVSDRFSGSKSGNTASLTISGLQAEDEADYYCSSFTTSSTVVFGGGTKLTVL
> 50 µg/mL: all assays above
